This passage reports fold above background results from publication PMC5912696.

The target in the test is Q394X truncation of the ER-tethered Ste6 NBD2 chimera (yeast). Description: co-IP.

Take “Hsp104 (from UniProt P31539 1-908) (natural protein)”: the fold above background turned out to be 2 fold.
